In this data set the test system is MS2 coat protein. As to the kind of experiment: apparent KD of MS2 coat protein; designed switch direction (-1 OFF switch, 1 ON switch): -1; higher = weaker reporter binding. The procedure, abridged:
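Transcription of designed RNA switches on Illumina chips was done by stalled E. coli RNA polymerase. SNAP-549-labelled MS2 coat protein was then titrated in doubling steps from 0.7 or 1.5 nM to 3 µM, with steps of 0.8–1.5 h at the lowest and 10–20 min at the highest concentration. The per-design median over clusters of curve-fitted normalised fluorescence is reported as apparent KD.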

Setting [1] is: Eterna round: R95, input ligand: FMN 200 uM.
[2] abbreviates: Eterna round: R95, input ligand: microRNA oligo, concentration not stated.
Where [3] appears, read: Eterna round: R95, input ligand: none.
Setting [4] is: input ligand: microRNA oligo, concentration not stated.

Turning to “GGUACUAACACGAAAGUGUUAGUACUAUAGGUUUGUGUUACAUGAGGAUCACCCAUGUCCUCAUAAGCUCGUCUUGU [JL-sv3-2.21 mat747 mod] (puzzle: Sensor v3, turn-off variant 2)”, the “apparent KD of MS2 coat protein” value came out at 0.455 µM under setting [1], 0.17 µM under setting [2] and 0.403 µM under setting [3].

“GGUACUAACACGGAAGUGUUAGUACUAUAAGCUUGUGUUACAUGAGGAUCACCCAUGUCCUCAUAAGCUCGUCUUAU [Mat - Sensor v3 - Turn-off var 2 - D75] (puzzle: Sensor v3, turn-off variant 2)”: the “apparent KD of MS2 coat protein” value runs as follows: under setting [1], 0.0935 µM; under setting [2], 0.0381 µM; under setting [3], 0.0907 µM.

For “GGUACUCAAAGAGUACCAAUACGAACAUGAGGAUCACCCAUGUAGGAUAUGCUACUCAAAGAGUAGCAGAAGGACAUGUACCUU [Far Half Aptamer v6] (Eterna round: R96, puzzle: Exclusion NG 3)”, the “apparent KD of MS2 coat protein” value came out at 0.227 µM (input ligand: FMN 200 uM), 0.0197 µM under setting [4] and 0.0295 µM (input ligand: none).

For the sequence “GGUACUCAAAGAGUACCAAUACGAACAUGAGGAUCACCCAUGUAGGAUAUGCUACUCAAAGAGUAGCAGAAGGAUAUGAUGGAU [Far Half Aptamer v15] (Eterna round: R96, puzzle: Exclusion NG 3)”, the “apparent KD of MS2 coat protein” value (input ligand: FMN 200 uM) turned out to be 0.0602 µM, the “apparent KD of MS2 coat protein” value under setting [4] worked out at 0.0192 µM and the “apparent KD of MS2 coat protein” value (input ligand: none) was 0.0342 µM.

Take “GGUACUCAAAGAGUACCAAUACGAACAUGAGGAUCACCCAUGUAGGAUAUGCUACUCAAAGAGUAGCAGAAGGAUAUGAUGUAU [Far Half Aptamer v17] (Eterna round: R96, puzzle: Exclusion NG 3)”: the “apparent KD of MS2 coat protein” value under setting [4] was determined as 0.0276 µM.

Turning to “GGUAGAGUGGUAGGAUAUCCGUCUGUUUCAGUCGGAGAAGGACCACAGUCACUGGGUCCAAAUAUGGGUGACCAUGUAUCUACC [pwkr exNG1 F6.3] (Eterna round: R96, puzzle: Exclusion NG 1)”, the “apparent KD of MS2 coat protein” value (input ligand: FMN 200 uM) worked out at 0.622 µM, the “apparent KD of MS2 coat protein” value under setting [4] was found to be 0.358 µM and the “apparent KD of MS2 coat protein” value (input ligand: none) was determined as 0.392 µM.

Turning to “GGUAGCUGAGGAUAUGCAGACGACCCUCAGUGCUGGCUUGCACAUGAGGAUCACCCAUGUAGAAGGCAGAAGCU [Eternabot (L2) Solution 5] (Eterna round: R97, puzzle: Exclusion 2)”, the “apparent KD of MS2 coat protein” value reads like this: (input ligand: FMN 200 uM) 0.056 µM; (input ligand: none) 0.0575 µM.

With “GGUAGGUGUGACUUGGGUGACAUGAGGAUCACCCAUGUCACAAGCUUGUUGCUCGCCUUGUAGUUAACCCAUGUCAC [LRO Sensor-off var1-30 mod of Stov1-13-A1 by Brourd] (Eterna round: R97, puzzle: Sensor, turn-off variant 1)”, the “apparent KD of MS2 coat protein” value is, setting by setting: (input ligand: FMN 200 uM) 0.0341 µM; (input ligand: none) 0.0345 µM.

On to “GGUCAAGAACAGAUCCGCGCUGUCAUUGACCGCUCAUUUACAUGAGGAUCACCCAUGUUUUUUGCUUGUCUUGUUAC [Edrama] (puzzle: Sensor v3, turn-off variant 2)”, for which the “apparent KD of MS2 coat protein” value runs as follows: under setting [1], 0.0196 µM; under setting [2], 0.0883 µM; under setting [3], 0.0182 µM.

For the sequence “GGUCAGAUGGUAGGAUAUCCAUAUCGAGUGACCCUUUUAUAACAUGAGGAUCACCCAUGUCGGUGGGAGAAGGGCCGUACGGCG [salish99_ExNG02_R04_018] (Eterna round: R96, puzzle: Exclusion NG 2)”, the “apparent KD of MS2 coat protein” value is, setting by setting: (input ligand: FMN 200 uM) 0.244 µM; under setting [4], 0.129 µM; (input ligand: none) 0.224 µM.

As to “GGUCAGAUGGUAGGAUAUUUAUAUCGAGUGACCCUUUCAUAACAUGAGGAUCACCCAUGUCGGUGGGAGAAGGGCCGUACGGCG [salish99_ExNG02_R04_013] (Eterna round: R96, puzzle: Exclusion NG 2)”, the “apparent KD of MS2 coat protein” value by setting is: (input ligand: FMN 200 uM) 0.0377 µM; under setting [4], 0.0331 µM; (input ligand: none) 0.0457 µM.

Regarding “GGUCAGCUAGGAUAUACAUGAGGAUCACCCAUGUACUGACCCAUGCGGGAAUCCGCGUGUAGAAGGAGCAAAAG [jl-ex3-4.60 ViennaUCT mod] (Eterna round: R97, puzzle: Exclusion 3)”, the “apparent KD of MS2 coat protein” value (input ligand: FMN 200 uM) amounted to 0.033 µM and the “apparent KD of MS2 coat protein” value (input ligand: none) is 0.0325 µM.

With “GGUCCACAUGAGGAUCACCCAUGUUAGGAUAUCUCCUGCCUCCUAAAUGGAAGCAGACAGAGAAGGAACAUCAA [Soanatra] (Eterna round: R96, puzzle: Exclusion 1)”, the “apparent KD of MS2 coat protein” value was 0.113 µM (input ligand: FMN 200 uM), 0.0218 µM under setting [4] and 0.0254 µM (input ligand: none).

On to “GGUCCACAUGAGGAUCACCCAUGUUAGGAUAUCUCCUGCCUCCUAAAUGGAAGCAGACAGAGAAGGAACAUCAA [Soanatra] (puzzle: Exclusion 1)”, for which the “apparent KD of MS2 coat protein” value under setting [2] stood at 0.0245 µM.

As for “GGUCCACAUGAGGAUCACCCAUGUUAGGAUAUCUCGCCCGAGUCCAUAUGGGCCGGGCAGAGAAGGAAUGUGAA [Vevequbi] (puzzle: Exclusion 1)”, the “apparent KD of MS2 coat protein” value under setting [2] was determined as 0.0175 µM.

With “GGUCGAAGUGUGAGGAUAUGCUGGUCCUUGGAUCAGCAGAAGGCACAUGAGGAUCACCCAUGUGGUAAACGACC [Mat - Exclusion 4 - Eli Mod - D34] (Eterna round: R97, puzzle: Brourd's mod of Exclusion 4)”, the “apparent KD of MS2 coat protein” value (input ligand: FMN 200 uM) stood at 0.982 µM and the “apparent KD of MS2 coat protein” value (input ligand: none) was found to be 0.171 µM.

For the sequence “GGUCGACAUGAGGAUCACCCAUGUCAGGAUAUCGUCACUGGAGCUUCGGCUCCAGUGACGAGAAGGGACAUAAU [E1/14-A1] (Eterna round: R97, puzzle: Exclusion 1)”, the “apparent KD of MS2 coat protein” value (input ligand: FMN 200 uM) worked out at 0.0395 µM and the “apparent KD of MS2 coat protein” value (input ligand: none) stood at 0.0392 µM.

“GGUCGGCGAGGAUAUACAUGAGGAUCACCCAUGUGAUAGAGUGCACGCGUACGUGUAUGUAGAAGGCGCUGACG [JL-ex3-3.29 salish99 mod] (puzzle: Exclusion 3)”: the “apparent KD of MS2 coat protein” value amounted to 0.16 µM under setting [1], 0.0342 µM under setting [2] and 0.066 µM under setting [3].

Turning to “GGUCGGCGAGGAUAUACAUGAGGAUCACCCAUGUGAUAUAGUGCACGCGUACGUGUACGUAGAAGGCGCUGACG [JL-ex3-3.26 salish99 mod] (puzzle: Exclusion 3)”, the “apparent KD of MS2 coat protein” value reads like this: under setting [1], 0.0396 µM; under setting [2], 0.0112 µM; under setting [3], 0.0151 µM.

Take “GGUCGUCAAGUCAGGAUAUCGUAUAGUCGAUGUAACGAGAAGGGACAUGAGGAUCACCCAUGUCGUCUCAUCAG [Ex4 #25] (Eterna round: R97, puzzle: Brourd's mod of Exclusion 4)”: the “apparent KD of MS2 coat protein” value (input ligand: FMN 200 uM) came to 0.0182 µM and the “apparent KD of MS2 coat protein” value (input ligand: none) turned out to be 0.0177 µM.

Regarding “GGUCUGCGAGGAUAUACAUGAGGAUCACCCAUGUGAGUGAUACUAGUGAGGUCGAUUGGUAGAAGGCGCGGACG [JL-ex3-2.05 salish99 mod] (puzzle: Exclusion 3)”, the “apparent KD of MS2 coat protein” value reads like this: under setting [1], 0.037 µM; under setting [2], 0.445 µM; under setting [3], 0.839 µM.

As for “GGUGAGCUAGGAUAUGCUUUGGGCUCGCUUUCCUUCGAUAAACUUGAGGAUCACCCAAGUAGAAGGAGCUUGCC [salish99_ex2_r4_033] (Eterna round: R97, puzzle: Exclusion 2)”, the “apparent KD of MS2 coat protein” value was 0.0148 µM (input ligand: FMN 200 uM) and 0.012 µM (input ligand: none).

For the sequence “GGUGAGCUAGGAUAUGCUUUGGGCUCGCUUUCCUUCGUUUUACUUGAGGAUCACCCAAGUAGAAGGAGCUUGCC [salish99_ex2_r4_036] (Eterna round: R97, puzzle: Exclusion 2)”, the “apparent KD of MS2 coat protein” value reads like this: (input ligand: FMN 200 uM) 0.0139 µM; (input ligand: none) 0.0122 µM.

Take “GGUGCGUAUGUGAGGAUAUGCUGGUCCUUGGCUCGGCAGAAGGCACAUGAGGAUCACCCAUGUGGUGUCGUACU [salish99_Bmod_ex4_068] (puzzle: Brourd's mod of Exclusion 4)”: under setting [2], the “apparent KD of MS2 coat protein” value came to 0.0968 µM.

“GGUGGUAUGUCAGGAUAUACAGCCUAAAUGGAAGUAGAAGGGACACAUGAGGGUCACCCAUGUGACAUGAGGAUCACCCAUGUA [Hi3 10-05-2015] (Eterna round: R96, puzzle: Exclusion NG 1)”: the “apparent KD of MS2 coat protein” value (input ligand: FMN 200 uM) was 0.064 µM, the “apparent KD of MS2 coat protein” value under setting [4] worked out at 0.0411 µM and the “apparent KD of MS2 coat protein” value (input ligand: none) is 0.0607 µM.

In the case of “GGUUAUUGCAAGGAUAUGCUAUUAUUUUAUUUUGCAGAAGGUGCAACAUGAGGAUCACCCAUGUUGGAGGGUUU [JR_E6_Sub024] (puzzle: Exclusion 6)”, under setting [2], the “apparent KD of MS2 coat protein” value was 0.0179 µM.

Take “GGUUGACAUGAGGAUCACCCAUGUGAGGAUAUGCGAGAGAAAAAAGUGAGGAAGAAAAGCAGAAGGCGCUGACG [salish99-ex1_r3_002] (puzzle: Exclusion 1)”: the “apparent KD of MS2 coat protein” value by setting is: under setting [1], 0.0155 µM; under setting [2], 0.0286 µM; under setting [3], 0.0135 µM.

Turning to “GGUUGACAUGAGGAUCACCCAUGUGAGGAUAUGCGAGAGAAAAAAGUGAGGAAGAAAAGCAGAAGGCGCUGUCG [salish99-ex1_r3_003] (puzzle: Exclusion 1)”, the “apparent KD of MS2 coat protein” value stood at 0.0298 µM under setting [1], 0.0224 µM under setting [2] and 0.0455 µM under setting [3].

In the case of “GGUUGACAUGAGGAUCACCCAUGUGAGGAUAUGCGAGAGAAAAAAGUGAGGAAGAUAAGCAGAAGGCGCUGUCG [salish99-ex1_r3_013] (puzzle: Exclusion 1)”, the “apparent KD of MS2 coat protein” value reads like this: under setting [1], 0.118 µM; under setting [2], 0.178 µM; under setting [3], 0.26 µM.

In the case of “GGUUGCGCAGGAUAUACAUGAGGAUCACCCAUGUGAGAGAAAUAAGUGAGGAAGAAAAGUAGAAGGGCGUGACG [Mat - Exclusion 3 - Mod of Salish D72] (puzzle: Exclusion 3)”, the “apparent KD of MS2 coat protein” value by setting is: under setting [1], 0.17 µM; under setting [2], 0.0377 µM; under setting [3], 0.0689 µM.

Source of the values: the supplement of paper PMC9170038.
